The results in this text go back to the supplement of paper PMC9732359.

± gives the uncertainty stated by the source.

The nature of this series: protein stability index of a GFP-peptide fusion (yeast GPS) (PSI 1-4); higher = more stable; sorted into four equal gates, so the index is relative within each strain. The procedure, abridged:
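The protein stability index of a peptide was calculated by multiplying its read frequency in each gate by that gate's number and adding the products. The peptides were tiled 17-residue stretches of yeast proteins, fused downstream of GFP on a Cherry-expressing plasmid and carried in yeast as a pooled library. Mid-log cultures in leucine-free medium were sorted into four equal gates by GFP/Cherry ratio, and each gate's plasmids were PCR-amplified and Illumina-sequenced.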

Consider RQPSLHRLSILSHYAKI [RPO31], for which the protein stability index runs as follows: (doa10∆) 1.74 ± 0.077; (pdr5∆) 2.1 ± 0.071; (san1∆) 1.36 ± 0.12; (ubr1∆) 2.13 ± 0.063.

RRGAHGSELSSKIRKIH [SIR3] returned a protein stability index (doa10∆) of 2.32 ± 0.12, a protein stability index (pdr5∆) of 2.02 ± 0.087, a protein stability index (san1∆) of 2.57 ± 0.15 and a protein stability index (ubr1∆) of 2.54 ± 0.063.

As to RRHRNPDLQFIVISLKN [SMC1], the protein stability index is 1.86 ± 0.041 (doa10∆), 1.83 ± 0.039 (pdr5∆), 1.73 ± 0.058 (san1∆) and 2.13 ± 0.027 (ubr1∆).

For the sequence RRKKILNEIELDNLKLK [GRR1], the protein stability index is, setting by setting: (doa10∆) 3.04 ± 0.11; (pdr5∆) 3.04 ± 0.086; (san1∆) 2.76 ± 0.093; (ubr1∆) 2.87 ± 0.068.

For RRLAFLGIKVAELTGDS [BRR2], the protein stability index runs as follows: (pdr5∆) 2.24 ± 0.19; (san1∆) 2.71 ± 0.16.

On to RRLHDENLMVQRTCLMT [YCS4], for which the protein stability index was found to be 2.43 ± 0.064 (doa10∆), 2.44 ± 0.057 (pdr5∆), 2.45 ± 0.058 (san1∆) and 2.24 ± 0.047 (ubr1∆).

As to RRNLRYGDRMKLAKNLQ [RPO31], the protein stability index is, setting by setting: (doa10∆) 3.15 ± 0.091; (pdr5∆) 3.38 ± 0.073; (san1∆) 3.48 ± 0.079; (ubr1∆) 3.44 ± 0.067.

On to RRQAVDVSPLRRVNQAI [RPS5], for which the protein stability index is, setting by setting: (doa10∆) 2.63 ± 0.083; (pdr5∆) 2.62 ± 0.094; (san1∆) 2.69 ± 0.078; (ubr1∆) 2.75 ± 0.083.

On to RRRKGISTGGFMSNDGP [SNU114], for which the protein stability index was determined as 1.46 ± 0.086 (doa10∆), 1.47 ± 0.1 (pdr5∆), 1.18 ± 0.14 (san1∆) and 1.33 ± 0.063 (ubr1∆).

As to RRSKQLINLAKTRVGSV [RPC82], the protein stability index (doa10∆) was 3.25 ± 0.053, the protein stability index (pdr5∆) turned out to be 2.91 ± 0.062, the protein stability index (san1∆) was determined as 2.95 ± 0.049 and the protein stability index (ubr1∆) was 3.25 ± 0.044.

In the case of RRVNQAIALLTIGAREA [RPS5], the protein stability index is, setting by setting: (doa10∆) 3.21 ± 0.21; (pdr5∆) 2.72 ± 0.21; (san1∆) 2.6 ± 0.24; (ubr1∆) 3.36 ± 0.22.

Consider RRVYNRVLETTLVEFET [BRN1], for which the protein stability index (doa10∆) amounted to 2.21 ± 0.068, the protein stability index (pdr5∆) was found to be 2.86 ± 0.098, the protein stability index (san1∆) stood at 2.69 ± 0.17 and the protein stability index (ubr1∆) is 1.7 ± 0.071.

Turning to RSDREYPLLIRMSYGSH [SRP14], the protein stability index is 2.51 ± 0.077 (doa10∆), 2.3 ± 0.077 (pdr5∆), 1.92 ± 0.077 (san1∆) and 2.23 ± 0.061 (ubr1∆).

RSLLQEAIETCKNFEKT [GAL11]: the protein stability index was 3.14 ± 0.15 (pdr5∆), 2.59 ± 0.19 (san1∆) and 3.09 ± 0.081 (ubr1∆).

RSMSGQPPTNVQPTIGQ [SNF5]: the protein stability index is, setting by setting: (doa10∆) 2.74 ± 0.065; (pdr5∆) 2.97 ± 0.071; (san1∆) 3.01 ± 0.074; (ubr1∆) 3.15 ± 0.036.

Turning to RSPPRPPSLKIIDGPKA [PRP28], the protein stability index reads like this: (doa10∆) 2.23 ± 0.07; (pdr5∆) 2.27 ± 0.079; (san1∆) 1.98 ± 0.094; (ubr1∆) 1.74 ± 0.041.

For the sequence RSVDRAGRKFKSRRCDD [POP4], the protein stability index stood at 3.1 ± 0.079 (doa10∆), 3.16 ± 0.078 (pdr5∆), 3.33 ± 0.071 (san1∆) and 3.18 ± 0.075 (ubr1∆).

Sequence RSVRIPWYNNPVSCIIQ [PRP8] returned a protein stability index (doa10∆) of 2.33 ± 0.1, a protein stability index (pdr5∆) of 2.19 ± 0.068, a protein stability index (san1∆) of 2.02 ± 0.16 and a protein stability index (ubr1∆) of 2.55 ± 0.06.

Consider RTNNVPMIKAEETPSKT [NUT1], for which the protein stability index by setting is: (doa10∆) 2.9 ± 0.1; (pdr5∆) 2.86 ± 0.084; (san1∆) 2.43 ± 0.097; (ubr1∆) 2.66 ± 0.078.

On to RTPDSISVNSSSFSLTF [POP1], for which the protein stability index was 2.56 ± 0.045 (doa10∆), 2.62 ± 0.042 (pdr5∆), 2.44 ± 0.045 (san1∆) and 2.37 ± 0.038 (ubr1∆).

Consider RVAASFSQEALQYVVER [FAS1], for which the protein stability index is, setting by setting: (doa10∆) 1.06 ± 0.091; (pdr5∆) 1.19 ± 0.11; (ubr1∆) 1.14 ± 0.089.

Regarding RVASDTVHEMEEELKKL [SMC4], the protein stability index (doa10∆) is 3.37 ± 0.21, the protein stability index (pdr5∆) stood at 3.33 ± 0.18, the protein stability index (san1∆) stood at 3.29 ± 0.12 and the protein stability index (ubr1∆) was 3.63 ± 0.19.

With RVGVVSILEAGDSDILT [RPL30], the protein stability index was found to be 3.1 ± 0.057 (doa10∆), 2.97 ± 0.074 (pdr5∆), 2.98 ± 0.07 (san1∆) and 3.03 ± 0.058 (ubr1∆).

In the case of RVHANLQCISQINQGVP [SNF11], the protein stability index by setting is: (doa10∆) 1.49 ± 0.043; (pdr5∆) 1.42 ± 0.043; (san1∆) 1.47 ± 0.067; (ubr1∆) 1.89 ± 0.055.

The sequence RVHRLLRRGNYAQRIGS [HTA1] registered a protein stability index (doa10∆) of 2.65 ± 0.23, a protein stability index (pdr5∆) of 2.77 ± 0.19, a protein stability index (san1∆) of 2.64 ± 0.094 and a protein stability index (ubr1∆) of 2.74 ± 0.24.
